Values belong to the binder of their own block, whether it stands above or below them.
Tests used:
[1] = molecular target: T1, hECD: full-length extracellular region of human MuSK (E22 to T495) with C-terminal Avi- and His6-tags (human, UniProt O15146 22-495, biotinylated in vitro using the BirA enzyme); assay: bead-binding assay, Fab format: biotinylated antigen on streptavidin beads, flow cytometry, 1:1 fit; average ± s.d., n=3
T1 construct: also called human ECD; not shown: Avi- and His6-tags
T1 sequence: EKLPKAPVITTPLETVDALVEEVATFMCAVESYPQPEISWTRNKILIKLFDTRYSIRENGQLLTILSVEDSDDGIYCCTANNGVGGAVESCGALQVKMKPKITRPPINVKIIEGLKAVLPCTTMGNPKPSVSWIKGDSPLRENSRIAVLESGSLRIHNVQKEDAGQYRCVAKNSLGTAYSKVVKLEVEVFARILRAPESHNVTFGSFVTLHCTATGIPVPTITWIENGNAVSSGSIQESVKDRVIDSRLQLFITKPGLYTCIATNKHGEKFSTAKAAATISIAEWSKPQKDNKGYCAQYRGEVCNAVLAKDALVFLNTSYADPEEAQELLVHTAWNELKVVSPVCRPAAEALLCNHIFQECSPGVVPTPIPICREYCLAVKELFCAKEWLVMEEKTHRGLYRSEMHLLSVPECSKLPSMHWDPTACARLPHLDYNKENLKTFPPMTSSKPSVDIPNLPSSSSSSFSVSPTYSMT

[2] = molecular target: T2, hFz: Fz domain and C-terminal flanking sequence of human MuSK (K314-T495) with C-terminal Avi- and His6-tags (human, UniProt O15146 314-495, biotinylated in vitro using the BirA enzyme); assay: as above
T2 construct: also called human Fz; not shown: Avi- and His6-tags
T2 sequence: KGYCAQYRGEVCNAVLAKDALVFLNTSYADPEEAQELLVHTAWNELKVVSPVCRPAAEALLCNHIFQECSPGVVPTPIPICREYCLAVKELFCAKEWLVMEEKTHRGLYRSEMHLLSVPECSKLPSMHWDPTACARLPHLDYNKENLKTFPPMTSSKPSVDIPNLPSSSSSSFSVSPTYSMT

[3] = molecular target: T3, mECD: full-length extracellular region of mouse MuSK (E22 to T494) with C-terminal Avi- and His6-tags (mouse, UniProt Q61006 22-494, biotinylated in vitro using the BirA enzyme); assay: as above
T3 construct: range 22-494; also called mouse ECD; not shown: Avi- and His6-tags
T3 sequence (looked up): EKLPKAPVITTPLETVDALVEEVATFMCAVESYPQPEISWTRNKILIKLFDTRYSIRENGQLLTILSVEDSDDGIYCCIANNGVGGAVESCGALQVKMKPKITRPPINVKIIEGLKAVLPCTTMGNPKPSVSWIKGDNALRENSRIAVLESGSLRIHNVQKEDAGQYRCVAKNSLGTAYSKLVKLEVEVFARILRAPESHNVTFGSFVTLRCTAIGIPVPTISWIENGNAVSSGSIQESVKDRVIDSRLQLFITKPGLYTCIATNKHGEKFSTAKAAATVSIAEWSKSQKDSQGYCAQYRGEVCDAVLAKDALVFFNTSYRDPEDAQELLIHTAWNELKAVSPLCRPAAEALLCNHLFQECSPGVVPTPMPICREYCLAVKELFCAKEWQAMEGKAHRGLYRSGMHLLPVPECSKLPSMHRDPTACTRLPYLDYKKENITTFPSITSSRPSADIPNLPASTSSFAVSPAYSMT

[4] = molecular target: T4, mFz: Fz domain and C-terminal flanking sequence of mouse MuSK (D307 to T494) with C-terminal Avi- and … (mouse, UniProt Q61006 307-494, limits assumed, biotinylated in vitro using the BirA enzyme); assay: as above
T4 construct: also called mouse Fz; not shown: Avi- and His6-tags
T4 sequence (looked up): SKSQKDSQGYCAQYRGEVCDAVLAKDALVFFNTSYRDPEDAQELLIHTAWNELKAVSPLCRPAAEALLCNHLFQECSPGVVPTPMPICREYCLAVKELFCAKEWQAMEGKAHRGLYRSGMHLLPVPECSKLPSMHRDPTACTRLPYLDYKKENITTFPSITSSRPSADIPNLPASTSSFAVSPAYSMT

[5] = molecular target: T1, hECD: full-length extracellular region …; assay: bead-binding titration, Fab format: antigen immobilized on streptavidin beads, MFI by flow cytometry, curve is the 1:1 fit
[6] = molecular target: T2, hFz: Fz domain and C-terminal flanking …; assay: as above
[7] = molecular target: T3, mECD: full-length extracellular region …; assay: as above
[8] = molecular target: T4, mFz: Fz domain and C-terminal flanking …; assay: as above

Kd [1]: 2.39 nM
Kd [2]: 1.7 nM
Kd [3]: 2.41 nM
Kd [4]: 1.56 nM
EC50 (read off the curve) [5]: ~2 nM
EC50 (read off the curve) [6]: ~2 nM
EC50 (read off the curve) [7]: ~2 nM
EC50 (read off the curve) [8]: ~2 nM
B1: X13 Fab (Fab, V domains shown)
VH: EVQLVESGGGLVQPGGSLRLSCAASGFTISSSSIHWVRQAPGKGLEWVASISSSSGSTSYADSVKGRFTISADTSKNTAYLQMNSLRAEDTAVYYCARSSEHWYTIGYYGIDYWGQGTLVTVSS
VL: DIQMTQSPSSLSASVGDRVTITCRASQSVSSAVAWYQQKPGKAPKLLIYSASSLYSGVPSRFSGSRSGTDFTLTISSLQPEDFATYYCQQSYGSFSLITFGQGTKVEIK
notes: also called Fab Clone X13

Kd [1]: 1.47 nM
Kd [2]: 0.9 nM
Kd [3]: 0.59 nM
Kd [4]: 0.42 nM
EC50 (read off the curve) [5]: ~1 nM
EC50 (read off the curve) [6]: ~1 nM
EC50 (read off the curve) [7]: ~0.6 nM
EC50 (read off the curve) [8]: ~0.4 nM
B2: X6 Fab (Fab, V domains shown)
VH: EVQLVESGGGLVQPGGSLRLSCAASGFTFSSSSIHWVRQAPGKGLEWVASISSYSGYTYYADSVKGRFTISADTSKNTAYLQMNSLRAEDTAVYYCARTYGSYYVSSYTGMDYWGQGTLVTVSS
VL: DIQMTQSPSSLSASVGDRVTITCRASQSVSSAVAWYQQKPGKAPKLLIYSASSLYSGVPSRFSGSRSGTDFTLTISSLQPEDFATYYCQQSSSSLITFGQGTKVEIK
notes: also called Fab Clone X6
